Measurements: US7811569

Tests used:
[1] = molecular target: native MSP-3 antigen of Plasmodium falciparum clone 3D7 schizonts and merozoites (Plasmodium falciparum); test: cell-based or functional assay
[2] = molecular target: native MSP-3 antigen of Plasmodium falciparum clone 3D7 schizonts and merozoites (Plasmodium falciparum); test: indirect immunofluorescence on 3D7 mature schizont infected RBCs; antibody at 3 µg/ml in ADCI
[3] = molecular target: native MSP-3 antigen of Plasmodium falciparum clone 3D7 schizonts and merozoites (Plasmodium falciparum); test: indirect immunofluorescence on 3D7 mature schizont infected RBCs; antibody at 15 µg/ml in ADCI

B1: RAM1 IgG3 (antibody, V domains shown)
VH: QVQLVQSGGGVVQPGRSLRLSCAASGFTFSSYAMHWVRQAPGKGLEWVAVISYDGSNKYYADSVKGRFTISRDNSKNTLYLQMSSLRAEDTAVYYCVKGASSWSTGTLVTVSS
VL: DIVMMQSPATLSASVGDRVTITCRASQSISSWLAWYQQKPGKAPNLLIYKASSLESGVPSRFSGSGSGTEFTLTISSLQPDDFATYYCQQYKSFPYTFGQGTRLEIKR
For B1, the SGI % (specific growth inhibitory index, ADCI with monocytes, 3 µg/ml) [1] was 23%, the SGI % (specific growth inhibitory index, ADCI with monocytes, 15 µg/ml) [1] was 49% and the IFAT in ADCI (endpoint titre of indirect immunofluorescence) [2] was 10 titre. For the same binder, the IFAT in ADCI (endpoint titre of indirect immunofluorescence) [3] was 50 titre.
